Results as given in publication PMC9330781.

Target: Recombinant blood coagulation factor VIII (human)
Settings: scale: times higher molar excess over FVIII

B1: Thrombin-cleaved iKM33-v2 (mixture of dissociated VH and VL) (protein)
VH: EVQLVESGGGVVQPGRSLRLSCVDSGLTFSSYGMHWVRQAPGAGLEWVAVISYDGNDKYYADSVKGRFAISRDNAKNTLYLQMNSLTIEDTAVYYCAKDLIESNIAEAFWGQGTLVTVSS
VL: DIQMTQSPSSLSASVGDTVTIACRASRDIRNDLAWYQQKPGKAPKLLIYATSRLQSGVPSRFSGSGSFTDFTLTINSLQPDDSATYYCLQDSDYPLTFGGGTKVDIK
For B1, the FVIII activity in the chromogenic substrate (CS) assay; thrombin-cleaved scFv 1000 to 0.24 nM with 145 pM FVIII; molar excess needed for the same inhibition as the non-cleaved scFv was 100.
